In patent US10004812B2 (priority 2014, dated 2018):
Where two headings read alike, the source gives them in different places. *1 amine or outer side, *2 acyl side, *3 side chain or, on linkers, in order; H or OH if unused. Where a SMILES comes first, the peptide text is derived from it. [ ]: non-standard residue; d: D form. The star is where a group is joined. ξ: configuration not given here. NPrTuv(OPr) = CCCO[C@H](C[C@H](C(C)C)N(CCC)[*:1])c1nc(C(=O)[*:2])cs1; Dolaproine = CO[C@@H]([C@@H]1CCCN1)[C@@H](C)C(=O)O; Hexanoyl(6-maleimido) = O=C1C=CC(=O)N1CCCCCC(=O)*; X1 = COC(=O)[C@@H](C)C[C@H](Cc1ccc(O)cc1)N*; Dil = CC[C@H](C)[C@H](NC)[C@@H](CC(=O)O)OC; PABC = O=C(OCc1ccc(N[*:1])cc1)[*:2]; X2 = C[C@@H](N*)[C@@H](O)c1ccccc1; Cit = NC(=O)NCCC[C@H](N)C(=O)O; NMeV = CN[C@H](C(=O)O)C(C)C; ξIle = CC[C@H](C)C(N)C(=O)O; dPip = O=C(O)[C@H]1CCCCN1

Columns and labels:
[1] = tested on: HT1080-FAP cell line; format: cell-based; conditions: crystal violet viability, FIG. 6, read-out: cytotoxic activity IC50
[2] = tested on: rabbit reticulocyte cell-free lysates
[3] = Table 3, published data; cited from earlier work
[4] = tested on: HT1080 cells; test: Cell proliferation arrest on HT1080 cells (CPA; crystal violet); format: cell-based
Procedure: Microtubule inhibition activity and cytotoxic activity of each new derivative were evaluated through tubulin polymerization inhibition assay (TPI; Tubulin Polymerization assay kit; Cytoskeleton, Cat. #BKO11P), and cell proliferation arrest on HT1080 cells (CPA; crystal violet).

[5] = tested on: PAXF-736 pancreas cancer xenograft; test: Anti-tumoral effect in patient-derived xenograft mouse model for pancreas cancer (PAXF-736); format: in vivo
Procedure: Both types of immunoconjugates, recNgA- and cytolysin-conjugates, were evaluated for their anti-tumoral effect in vivo in a patient-derived xenograft mouse model for pancreas cancer (PAXF-736), previously selected for antigen expression.
Immunoconjugates were then administrated once a week intraperitoneally over 5 weeks. Tumor volume and body weight were measured every 2-3 days. Vehicle-treated and Gemcitabine-treated (150 mg/kg) PDX mice were used as negative and positive control groups, respectively.

[6] = target: T1, recombinant human ENG (Homo sapiens, UniProt P17813); test: ELISA binding to immobilized recombinant human ENG; conditions: FIG. 3a
T1 sequence (P17813 whole entry, looked up): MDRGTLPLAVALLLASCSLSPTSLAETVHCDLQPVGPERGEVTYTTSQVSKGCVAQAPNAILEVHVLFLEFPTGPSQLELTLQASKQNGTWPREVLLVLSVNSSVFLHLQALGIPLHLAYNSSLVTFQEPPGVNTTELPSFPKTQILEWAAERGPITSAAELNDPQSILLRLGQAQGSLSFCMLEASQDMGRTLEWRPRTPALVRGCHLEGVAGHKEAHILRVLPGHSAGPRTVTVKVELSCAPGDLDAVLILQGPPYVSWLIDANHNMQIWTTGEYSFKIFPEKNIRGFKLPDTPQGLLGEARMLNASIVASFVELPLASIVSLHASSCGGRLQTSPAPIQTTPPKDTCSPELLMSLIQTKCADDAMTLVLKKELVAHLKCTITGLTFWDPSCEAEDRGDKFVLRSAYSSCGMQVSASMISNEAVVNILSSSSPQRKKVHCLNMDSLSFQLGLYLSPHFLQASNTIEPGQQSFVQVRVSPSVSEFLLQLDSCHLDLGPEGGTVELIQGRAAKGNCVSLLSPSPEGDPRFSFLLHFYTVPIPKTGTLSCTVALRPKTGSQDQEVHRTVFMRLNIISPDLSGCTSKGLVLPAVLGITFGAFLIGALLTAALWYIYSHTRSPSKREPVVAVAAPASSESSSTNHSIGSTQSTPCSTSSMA
Procedure: Bioactivity was analyzed by ELISA using recombinant ENG and detection of bound antibodies with HRP-conjugated anti-human IgG antibodies.

[7] = tested on: HT1080 cells; test: Flow cytometry cell binding, ENG-positive HT1080 cells; design: species or system human; conditions: FIG. 3b
Procedure: Purified anti-muENG mE12 and anti-huENG A5 antibodies were analyzed in ELISA for binding to recombinant ENG and using flow cytometry analysis (FACS).
(§1) Purified proteins A5-IgG and mE12-IgG were characterized by SDS-PAGE and size exclusion chromatography. Bioactivity was analyzed by ELISA, using recombinant mouse/human ENG and detection of bound antibodies with HRP-conjugated anti-human IgG antibodies. Cell binding was analyzed by flow cytometry, using ENG-positive HT1080 and ENG expressing mouse eEnd2. Melting points were determined by dynamic light scattering using a zetasizer nano. Affinities were determined by QCM using an Attana A100. Internalization study was performed by indirect immunofluorescence confocal microscopy on permeabilized cells, detecting bound and internalized antibodies with a FITC-labeled secondary antibody.

[8] = tested on: HT1080 cells; test: Internalization by indirect immunofluorescence confocal microscopy; format: cell-based, human
Procedure: as §1
Preliminary internalization studies indicate rapid cellular internalization for A5-IgG against cells expressing human ENG. Indeed within 30 min, almost 90% of the A5-IgG is found within HT1080 cells.

[9] = Melting point by dynamic light scattering (zetasizer nano); format: physicochemical; conditions: thermal stability
Procedure: as §1

## Nigrin b: native (WT) Nigrin b, type 2 ribosome-inactivating protein with A and B chains
[1]
  IC50: ~20 nM
[2]
  IC50: ~0.0025 nM
[3]
  Mouse LD50: 12,000.00 μgkg^−1

## CCCO[C@H](C[C@H](C(C)C)N(CCC)C(=O)[C@@H](NC(=O)C(C(C)C(=O)OCc1ccc(NC(=O)[C@H](CCCNC(N)=O)NC(=O)[C@@H](NC(=O)CCCCCN2C(=O)C=CC2=O)C(C)C)cc1)[C@@H](C)CC)[C@@H](C)CC)c1nc(C(=O)N[C@@H](Cc2ccccc2)C[C@H](C)C(=O)O)cs1 (stereo partly shown) [TAM551]
[4]; Homo sapiens, HT-1080
  IC50: 90 nM

## CCCO[C@H](C[C@H](C(C)C)N(CCC)C(=O)[C@@H](NC(=O)[C@H]1CCCCN1C)[C@@H](C)CC)c1nc(C(=O)N[C@@H](Cc2ccc(O)cc2)C[C@H](C)C(=O)NNC(=O)OCCOCCOCCOCCNC(=O)CCCCCN2C(=O)C=CC2=O)cs1 [TAM552]
[4]; Homo sapiens, HT-1080
  IC50: 10 nM

## CC[C@H](C)[C@@H]([C@@H](CC(=O)N1CCC[C@H]1[C@H](OC)[C@@H](C)C(=O)N[C@H](C)[C@@H](O)c1ccccc1)OC)N(C)C(=O)[C@@H](NC(=O)[C@@H](NC)C(C)C)C(C)C [MMAE, reference compound] (H-[NMeV]V[Dil][Dolaproine]-X2)
[4]
  IC50: 0.1 to 0.6 nM

## CC[C@H](C)[C@H](NC(=O)[C@H]1CCCCN1C)C(=O)N(COC(=O)CC(C)C)[C@H](C[C@@H](OC(C)=O)c1nc(C(=O)N[C@@H](Cc2ccc(O)cc2)C[C@H](C)C(=O)O)cs1)C(C)C [Tubulysin A, reference compound]
[4]
  IC50: 0.04 to 0.2 nM

## CCCO[C@H](C[C@H](C(C)C)N(CCC)C(=O)[C@@H](NC(=O)[C@H]1CCCCN1C)[C@@H](C)CC)c1nc(C(=O)N[C@@H](Cc2ccc(O)cc2)C[C@H](C)C(=O)NNC(=O)OCc2ccc(NC(=O)[C@@H](CCCNC(N)=O)NC(=O)[C@H](NC(=O)CCCCCN3C(=O)C=CC3=O)C(C)C)cc2)cs1 [TAM471, Maleimido-Val-Cit-PABOCO-Tubulysin/Cytolysin-TAM470]
[4]; Homo sapiens, HT-1080
  IC50: 17 to 42 nM

## CCCO[C@H](C[C@H](C(C)C)N(CCC)C(=O)C(NC(=O)[C@H]1CCCCN1C(=O)OCc1ccc(NC(=O)[C@H](CCCNC(N)=O)NC(=O)[C@@H](NC(=O)CCCCCN2C(=O)C=CC2=O)C(C)C)cc1)[C@@H](C)CC)c1nc(C(=O)N[C@@H](Cc2ccc(O)cc2)C[C@H](C)C(=O)OC)cs1 (stereo partly drawn) [TAM467, Maleimido-Val-Cit-PABOCO-Tubulysin/Cytolysin-TAM461] ({Hexanoyl(6-maleimido)}-V[Cit][PABC][dPip][ξIle][NPrTuv(OPr)]-X1)
[4]; Homo sapiens, HT-1080
  IC50: 230 to 420 nM

B1: OMTX505: recNgA immunoconjugate tested in vivo (conjugate)
heavy: QVQLVQSGAEVKKPGASVKVSCKASGYTFTENIIHWVRQAPGQGLEWMGWFHPGSGSIKYNEKFKDRVTMTADTSTSTVYMELSSLRSEDTAVYYCARHGGTGRGAMDYWGQGTLVTVSSASTKGPSVFPLAPSSKSTSGGTAALGCLVKDYFPEPVTVSWNSGALTSGVHTFPAVLQSSGLYSLSSVVTVPSSSLGTQTYICNVNHKPSNTKVDKKVEPKSCDKTHTCPPCPAPPVAGPSVFLFPPKPKDTLMISRTPEVTCVVVDVSHEDPEVKFNWYVDGVEVHNAKTKPREEQYNSTYRVVSVLTVLHQDWLNGKEYKCKVSNKGLPSSIEKTISKAKGQPREPQVYTLPPSRDELTKNQVSLTCLVKGFYPSDIAVEWESNGQPENNYKTTPPVLDSDGSFFLYSKLTVDKSRWQQGNVFSCSVMHEALHNHYTQKSLSLSPGK
light: DIQMTQSPSSLSASVGDRVTITCRASKSVSTSAYSYMHWYQQKPGKAPKLLIYLASNLESGVPSRFSGSGSGTDFTLTISSLQPEDFATYYCQHSRELPYTFGQGTKLEIKRTVAAPSVFIFPPSDEQLKSGTASVVCLLNNFYPREAKVQWKVDNALQSGNSQESVTEQDSKDSTYSLSSTLTLSKADYEKHKVYACEVTHQGLSSPVTKSFNRGEC
chain: MIDYPSVSFNLDGAKSATYRDFLSNLRKTVATGTYEVNGLPVLRRESEVQVKSRFVLVPLTNYNGNTVTLAVDVTNLYVVAFSGNANSYFFKDATEVQKSNLFVGTKQNTLSFTGNYDNLETAANTRRESIELGPSPLDGAITSLYHGDSVARSLLVVIQMVSEAARFRYIEQEVRRSLQQATSFTPNALMLSMENNWSSMSLEIQQAGNNVSPFFGTVQLLNYDHTHRLVDNFEELYKITGIAILLFRCSSPSND
[5]; 0.5 mg/kg, once a week i.p. over 5 weeks, single agent
  in vivo anti-tumoral efficacy: 60%
[5]; combined with Gemcitabine, tumor regression
  tumor growth inhibition: 100%

B2: A5-IgG1: human anti-human Endoglin IgG1; heavy chain SEQ ID NO: 3, light chain SEQ ID NO: 4; ADCC/CDC deficient (antibody)
heavy: EVQLLESGGGLVQPGGSLRLSCAASGFTFSSYAMSWVRQAPGKGLEWVSAIYGSDGDTTYADSVKGRFTISRDNSKNTLYLQMNSLRAEDTAVYYCARVFYTAGFDYWGQGTLVTVSSASTKGPSVFPLAPSSKSTSGGTAALGCLVKDYFPEPVTVSWNSGALTSGVHTFPAVLQSSGLYSLSSVVTVPSSSLGTQTYICNVNHKPSNTKVDKKVEPKSCDKTHTCPPCPAPPVAGPSVFLFPPKPKDTLMISRTPEVTCVVVDVSHEDPEVKFNWYVDGVEVHNAKTKPREEQYNSTYRVVSVLTVLHQDWLNGKEYKCKVSNKGLPSSIEKTISKAKGQPREPQVYTLPPSRDELTKNQVSLTCLVKGFYPSDIAVEWESNGQPENNYKTTPPVLDSDGSFFLYSKLTVDKSRWQQGNVFSCSVMHEALHNHYTQKSLSLSPGK
light: DIELTQSPSSLSASVGDRVTITCRASQSISSSLNWYQQKPGKAPKLLIYAASSLQSGVPSRFSGSGSGTDFTLTISSLQPEDFATYYCQQAPAKPPTFGQGTKLEIKRTVAAPSVFIFPPSDEQLKSGTASVVCLLNNFYPREAKVQWKVDNALQSGNSQESVTEQDSKDSTYSLSSTLTLSKADYEKHKVYACEVTHQGLSSPVTKSFNRGEC
modifications: Synthetic sequence A5-IgG1-HC - without signal sequence; Synthetic sequence A5-IgG1-LC - without signal sequence
[6]
  binding to human ENG by ELISA, in words: concentration-dependent binding
[7]
  binding to human ENG by flow cytometry, in words: concentration-dependent binding
[8]; HT1080
  internalization (time): 30 to 60 min
[8]; HT1080 cells, within 30 min, preliminary
  share of antibody found within cells: ~90%
[9]
  Tm (DLS): 72 °C
